Target: T1, biotinylated SVEP1 (mouse, UniProt A2AVA0 18-3567, biotin on the biotinylation domain (by BirA))
T1 construct: SVEP1, mouse Svep1 cDNA; biotinylation domain inserted in the C-terminus region upstream of the Myc tag; Same Svep1 construct as m1 with the biotinylation domain added; source: 293F cells, co-transfected with secreted BirA and supplemented with biotin, purified (Nuvia IMAC, Superose 6)
Assay: BLI; biotinylated SVEP1 loaded on Octet SA biosensors (20 min, about 0.7 nm shift), quenched with biocytin; PEAR1 or PEAR1 D343N 10-90 nM as analyte; 0.01% Tween 20 in calcium-containing DPBS; 15 min association, 15 min dissociation; global 1:1 fit
Details: both partners purified

T1 sequence (A2AVA0 18-3567): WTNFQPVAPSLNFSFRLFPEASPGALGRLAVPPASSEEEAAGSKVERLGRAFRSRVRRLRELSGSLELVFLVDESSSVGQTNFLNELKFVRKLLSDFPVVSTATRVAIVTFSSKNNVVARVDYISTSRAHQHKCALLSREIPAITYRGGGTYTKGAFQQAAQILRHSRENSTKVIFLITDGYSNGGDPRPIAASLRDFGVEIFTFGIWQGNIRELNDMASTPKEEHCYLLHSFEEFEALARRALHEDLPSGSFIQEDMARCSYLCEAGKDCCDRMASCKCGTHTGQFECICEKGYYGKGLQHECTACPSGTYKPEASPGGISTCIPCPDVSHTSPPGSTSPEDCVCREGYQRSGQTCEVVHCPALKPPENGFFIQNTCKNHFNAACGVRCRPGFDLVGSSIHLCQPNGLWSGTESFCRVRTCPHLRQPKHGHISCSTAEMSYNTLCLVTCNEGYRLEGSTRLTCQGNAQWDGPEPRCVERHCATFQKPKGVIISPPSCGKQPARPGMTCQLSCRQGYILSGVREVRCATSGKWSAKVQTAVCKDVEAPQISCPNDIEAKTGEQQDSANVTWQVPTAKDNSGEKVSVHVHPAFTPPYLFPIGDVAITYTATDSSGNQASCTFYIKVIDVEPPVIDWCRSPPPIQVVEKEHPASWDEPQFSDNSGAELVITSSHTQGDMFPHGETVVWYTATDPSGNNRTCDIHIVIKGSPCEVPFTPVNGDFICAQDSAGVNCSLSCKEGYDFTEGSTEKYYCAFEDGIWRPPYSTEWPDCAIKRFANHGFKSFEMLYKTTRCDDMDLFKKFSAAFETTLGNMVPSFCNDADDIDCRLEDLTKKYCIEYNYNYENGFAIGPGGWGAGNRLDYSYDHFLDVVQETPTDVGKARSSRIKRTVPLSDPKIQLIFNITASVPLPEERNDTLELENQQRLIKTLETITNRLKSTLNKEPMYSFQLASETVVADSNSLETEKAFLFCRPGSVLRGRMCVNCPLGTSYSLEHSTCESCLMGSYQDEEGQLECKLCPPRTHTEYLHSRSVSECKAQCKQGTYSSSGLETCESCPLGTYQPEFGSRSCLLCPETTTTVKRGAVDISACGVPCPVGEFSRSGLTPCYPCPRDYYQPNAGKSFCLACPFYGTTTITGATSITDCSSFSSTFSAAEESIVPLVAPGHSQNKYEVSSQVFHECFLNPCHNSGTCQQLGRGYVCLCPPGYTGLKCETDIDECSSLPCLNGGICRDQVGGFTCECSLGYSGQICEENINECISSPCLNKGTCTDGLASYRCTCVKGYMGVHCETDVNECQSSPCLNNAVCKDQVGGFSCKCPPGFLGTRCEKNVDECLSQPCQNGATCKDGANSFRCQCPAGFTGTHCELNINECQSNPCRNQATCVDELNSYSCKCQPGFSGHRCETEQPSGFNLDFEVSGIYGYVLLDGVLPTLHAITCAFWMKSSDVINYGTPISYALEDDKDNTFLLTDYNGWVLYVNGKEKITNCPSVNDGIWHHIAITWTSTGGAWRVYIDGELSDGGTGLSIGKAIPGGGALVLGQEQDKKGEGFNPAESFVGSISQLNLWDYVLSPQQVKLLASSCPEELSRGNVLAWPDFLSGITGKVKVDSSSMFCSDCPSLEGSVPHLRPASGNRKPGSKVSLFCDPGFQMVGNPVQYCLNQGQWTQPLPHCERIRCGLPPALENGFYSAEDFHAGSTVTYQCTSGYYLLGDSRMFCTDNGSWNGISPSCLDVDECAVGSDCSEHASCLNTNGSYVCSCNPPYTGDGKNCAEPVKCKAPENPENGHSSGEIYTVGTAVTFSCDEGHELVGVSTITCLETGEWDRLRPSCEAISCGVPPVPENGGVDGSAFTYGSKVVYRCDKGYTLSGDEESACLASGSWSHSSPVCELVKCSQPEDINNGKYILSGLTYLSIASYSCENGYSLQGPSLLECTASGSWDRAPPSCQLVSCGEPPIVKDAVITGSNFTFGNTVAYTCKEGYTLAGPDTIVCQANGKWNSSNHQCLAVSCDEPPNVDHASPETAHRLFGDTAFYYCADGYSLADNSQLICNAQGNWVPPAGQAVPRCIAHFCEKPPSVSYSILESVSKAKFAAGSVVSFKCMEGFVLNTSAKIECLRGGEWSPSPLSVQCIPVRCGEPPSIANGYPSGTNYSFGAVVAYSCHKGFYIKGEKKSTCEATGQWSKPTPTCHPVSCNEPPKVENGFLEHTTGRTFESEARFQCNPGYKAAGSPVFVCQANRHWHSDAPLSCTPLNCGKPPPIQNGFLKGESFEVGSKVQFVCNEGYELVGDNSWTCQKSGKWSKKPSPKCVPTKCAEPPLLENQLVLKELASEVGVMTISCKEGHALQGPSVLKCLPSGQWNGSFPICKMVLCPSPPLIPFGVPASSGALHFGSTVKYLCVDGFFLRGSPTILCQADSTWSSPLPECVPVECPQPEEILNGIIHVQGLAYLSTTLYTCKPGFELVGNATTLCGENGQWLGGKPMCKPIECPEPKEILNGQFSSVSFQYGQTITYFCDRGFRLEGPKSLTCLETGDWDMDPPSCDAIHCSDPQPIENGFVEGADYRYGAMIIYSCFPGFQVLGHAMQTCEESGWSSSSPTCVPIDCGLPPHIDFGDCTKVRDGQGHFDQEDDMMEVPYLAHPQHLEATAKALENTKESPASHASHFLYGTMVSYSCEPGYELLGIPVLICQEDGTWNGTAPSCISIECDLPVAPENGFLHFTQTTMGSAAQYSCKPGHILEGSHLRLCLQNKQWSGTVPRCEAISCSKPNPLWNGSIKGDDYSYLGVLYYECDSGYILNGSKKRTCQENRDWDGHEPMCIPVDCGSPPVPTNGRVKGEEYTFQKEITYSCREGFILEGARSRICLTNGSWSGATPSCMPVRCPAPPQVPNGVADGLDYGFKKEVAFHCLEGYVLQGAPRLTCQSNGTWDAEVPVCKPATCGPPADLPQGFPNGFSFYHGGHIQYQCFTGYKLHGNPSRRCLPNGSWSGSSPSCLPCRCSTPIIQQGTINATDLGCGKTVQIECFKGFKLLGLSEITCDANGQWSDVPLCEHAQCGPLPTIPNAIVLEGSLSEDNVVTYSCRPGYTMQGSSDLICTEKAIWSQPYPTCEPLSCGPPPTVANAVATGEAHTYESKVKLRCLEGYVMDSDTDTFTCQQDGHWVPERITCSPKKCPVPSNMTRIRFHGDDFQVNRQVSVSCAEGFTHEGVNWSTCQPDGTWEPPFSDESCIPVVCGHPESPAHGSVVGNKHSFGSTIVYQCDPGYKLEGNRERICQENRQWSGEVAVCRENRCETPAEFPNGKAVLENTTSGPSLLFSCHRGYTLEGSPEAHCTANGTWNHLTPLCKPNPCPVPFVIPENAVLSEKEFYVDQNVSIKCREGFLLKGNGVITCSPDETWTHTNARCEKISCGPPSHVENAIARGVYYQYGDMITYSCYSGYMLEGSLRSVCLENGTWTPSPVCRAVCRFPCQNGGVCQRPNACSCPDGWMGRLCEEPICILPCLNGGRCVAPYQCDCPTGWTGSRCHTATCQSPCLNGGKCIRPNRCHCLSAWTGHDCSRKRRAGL

Kd | Binder
0.708 ± 0.003 nM | PEAR1 (analyte of the BLI on biotinylated SVEP1) (receptor) LNPSDPNTCSFWESFTTTTKESHSRPFSLLPSEPCERPWEGPHTCPQPTVVYRTVYRQVVKTDHRQRLQCCHGFYESRGFCVPLCAQECVHGRCVAPNQCQCVPGWRGDDCSSECAPGMWGPQCDKPCSCGNNSSCDPKSGVCSCPSGLQPPNCLQPCTPGYYGPACQFRCQCHGAPCDPQTGACFCPAERTGPSCDVSCSQGTSGFFCPSTHSCQNGGVFQTPQGSCSCPPGWMGTICSLPCPEGFHGPNCSQECRCHNGGLCDRFTGQCRCAPGYTGDRCREECPVGRFGQDCAETCDCAPDARCFPANGACLCEHGFTGDRCTDRLCPDGFYGLSCQAPCTCDREHSLSCHPMNGECSCLPGWAGLHCNESCPQDTHGPGCQEHCLCLHGGVCQATSGLCQCAPGYTGPHCASLCPPDTYGVNCSARCSCENAIACSPIDGECVCKEGWQRGNCSVPCPPGTWGFSCNASCQCAHEAVCSPQTGACTCTPGWHGAHCQLPCPKGQFGEGCASRCDCDHSDGCDPVHGRCQCQAGWMGARCHLSCPEGLWGVNCSNTCTCKNGGTCLPENGNCVCAPGFRGPSCQRSCQPGRYGKRCVPCKCANHSFCHPSNGTCYCLAGWTGPDCSQPCPPGHWGENCAQTCQCHHGGTCHPQDGSCICPLGWTGHHCLEGCPLGTFGANCSQPCQCGPGEKCHPETGACVCPPGHSGAPCRIGIQEPFTVMPTTPVAYNSL
1.76 ± 0.006 nM | PEAR1 D343N (receptor, human, UniProt Q5VY43 21-755, looked up, PEAR1 with the natural human missense variant p.D343N (rs147639000) in an EGF-like domain of the ectodomain; the construct is not described; as a soluble analyte it is probably an ectodomain (surmise); also called PEAR1 p.D343N; rs147639000) LNPSDPNTCSFWESFTTTTKESHSRPFSLLPSEPCERPWEGPHTCPQPTVVYRTVYRQVVKTDHRQRLQCCHGFYESRGFCVPLCAQECVHGRCVAPNQCQCVPGWRGDDCSSECAPGMWGPQCDKPCSCGNNSSCDPKSGVCSCPSGLQPPNCLQPCTPGYYGPACQFRCQCHGAPCDPQTGACFCPAERTGPSCDVSCSQGTSGFFCPSTHSCQNGGVFQTPQGSCSCPPGWMGTICSLPCPEGFHGPNCSQECRCHNGGLCDRFTGQCRCAPGYTGDRCREECPVGRFGQDCAETCDCAPDARCFPANGACLCEHGFTGNRCTDRLCPDGFYGLSCQAPCTCDREHSLSCHPMNGECSCLPGWAGLHCNESCPQDTHGPGCQEHCLCLHGGVCQATSGLCQCAPGYTGPHCASLCPPDTYGVNCSARCSCENAIACSPIDGECVCKEGWQRGNCSVPCPPGTWGFSCNASCQCAHEAVCSPQTGACTCTPGWHGAHCQLPCPKGQFGEGCASRCDCDHSDGCDPVHGRCQCQAGWMGARCHLSCPEGLWGVNCSNTCTCKNGGTCLPENGNCVCAPGFRGPSCQRSCQPGRYGKRCVPCKCANHSFCHPSNGTCYCLAGWTGPDCSQPCPPGHWGENCAQTCQCHHGGTCHPQDGSCICPLGWTGHHCLEGCPLGTFGANCSQPCQCGPGEKCHPETGACVCPPGHSGAPCRIGIQEPFTVMPTTPVAYNSL

From PMC9932102, “SVEP1 is an endogenous ligand for the orphan receptor PEAR1” (Nature Communications, 2023)
